Data on four molecules can be found in patent US20200317768A1 (published 2020).

What all share (experiment): SPR (Biacore), KD of SG1 / KD of variant;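 further: relative to parent M103205H795-SG1 carrying the SG1 human heavy chain constant region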
In general terms: SPR reads the build-up and loss of mass on a sensor chip optically.

The target of experiment [1] is T1, human FcγRIIaH extracellular domain, C-terminal His-tag (human, UniProt P12318 34-217).
T1 construct: also called human FcγRIIa (type H); FcgRIIaH; not shown: His-tag added to C-terminus
T1 sequence: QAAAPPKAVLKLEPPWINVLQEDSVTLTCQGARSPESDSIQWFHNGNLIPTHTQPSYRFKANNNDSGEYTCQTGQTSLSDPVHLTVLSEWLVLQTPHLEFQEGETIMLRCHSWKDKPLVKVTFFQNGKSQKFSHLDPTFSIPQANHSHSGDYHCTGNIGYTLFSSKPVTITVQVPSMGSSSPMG
The protocol: (§1) The kinetic analysis of interactions between these antibodies and FcγR was carried out using BIACORE® T200 or BIACORE® 4000 (GE Healthcare). HBS-EP+ (GE Healthcare) was used as the running buffer, and the measurement temperature was set to 25° C. A chip produced by immobilizing Protein A. Protein A/G or mouse anti-human IgG kappa light chain (BD Biosciences) onto a Series S Sensor Chip CM4 or CM5 (GE Healthcare) by the amine-coupling method was used. […] After the measurement, the antibody captured on the chip was washed off by allowing reaction with 10 mM glycine-HCl, pH1.5 and 25 mM NaOH so that the chip was regenerated and used repeatedly. The sensorgrams obtained as measurement results were analyzed by the 1:1 Langmuir binding model using the BIACORE® Evaluation Software to calculate the binding rate constant ka (L/mol/s) and dissociation rate constant kd (l/s), and the dissociation constant KD (mol/L) was calculated from these values. […] Regarding such interactions, KD values were calculated using the following 1:1 binding model described in BIACORE® T100 Software Handbook BR1006-48 Edition AE.
(§2) The behavior of interacting molecules according to the 1:1 binding model on BIACORE® can be described by Equation 1: Req=C·R max/(KD+C)+RI, wherein, Req is a plot of steady-state binding levels to analyte concentration. C is concentration, RI is bulk refractive index contribution in the sample, and Rmax is analyte binding capacity of the surface. When this equation is rearranged, KD can be expressed as Equation 2: KD=C·Rmax/(Req−RI)−C. KD can be calculated by substituting the values of Rmax, RI, and C into Equation 1 or Equation 2. From the current measurement conditions, RI=0, C=2 μmol/L can be used.

For experiment [2], the target named is T2, human FcγRIIb extracellular domain, C-terminal His-tag (human, UniProt P31994 43-217).
T2 construct: also called FcgRIIb (human); not shown: His-tag added to C-terminus
T2 sequence: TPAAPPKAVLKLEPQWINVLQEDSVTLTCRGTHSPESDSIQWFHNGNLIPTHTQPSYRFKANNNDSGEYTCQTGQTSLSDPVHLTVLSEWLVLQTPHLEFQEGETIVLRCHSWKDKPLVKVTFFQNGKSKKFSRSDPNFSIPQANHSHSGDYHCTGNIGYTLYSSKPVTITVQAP
The protocol:
as §1, §2

The target of experiment [3] is T3, cynomolgus monkey FcγRIIa3 extracellular domain, C-terminal His-tag (cynomolgus monkey).
T3 construct: also called cyno FcγRIIa3; cynoFcgRIIa3; not shown: His-tag added to C-terminus
T3 chain: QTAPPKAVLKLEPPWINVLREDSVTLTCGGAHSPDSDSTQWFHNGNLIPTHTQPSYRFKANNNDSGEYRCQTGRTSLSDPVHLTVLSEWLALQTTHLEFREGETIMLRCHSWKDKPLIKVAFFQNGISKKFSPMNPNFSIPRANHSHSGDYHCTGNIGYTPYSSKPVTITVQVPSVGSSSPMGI
On the procedure: as §1, §2

In experiment [4] the target is T4, cynomolgus monkey FcγRIIb extracellular domain, C-terminal His-tag (cynomolgus monkey).
T4 construct: also called cyno FcγRIIb; cynoFcγRIIb; not shown: His-tag added to C-terminus
T4 chain: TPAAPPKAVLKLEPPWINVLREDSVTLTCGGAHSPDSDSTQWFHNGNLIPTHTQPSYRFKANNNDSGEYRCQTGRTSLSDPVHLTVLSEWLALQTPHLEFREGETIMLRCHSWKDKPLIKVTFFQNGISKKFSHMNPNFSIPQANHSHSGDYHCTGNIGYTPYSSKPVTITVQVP
On the procedure:
as §1, §2

In experiment [5] the target is T5, cynomolgus monkey FcγRIIa1 extracellular domain, C-terminal His-tag (cynomolgus monkey).
T5 construct: also called cyno FcγRIIa1; cynoFcgRIIa1; not shown: His-tag added to C-terminus
T5 chain: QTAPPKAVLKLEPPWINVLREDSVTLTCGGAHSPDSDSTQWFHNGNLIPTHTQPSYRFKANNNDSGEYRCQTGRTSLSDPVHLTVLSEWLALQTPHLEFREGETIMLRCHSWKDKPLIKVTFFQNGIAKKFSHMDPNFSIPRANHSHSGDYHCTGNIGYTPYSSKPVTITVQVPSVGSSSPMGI
The protocol:
as §1, §2

Experiment [6] addresses T6, human FcγRIIIaV extracellular domain, C-terminal His-tag (human, UniProt P08637 17-208).
T6 construct: also called FcgRIIIaV; not shown: His-tag added to C-terminus
The protocol: as §1, §2

In experiment [7] the target is T7, cynomolgus monkey FcγRIIa2 extracellular domain, C-terminal His-tag (cynomolgus monkey).
T7 construct: also called cyno FcγRIIa2; cynoFcgRIIa2; not shown: His-tag added to C-terminus
T7 chain: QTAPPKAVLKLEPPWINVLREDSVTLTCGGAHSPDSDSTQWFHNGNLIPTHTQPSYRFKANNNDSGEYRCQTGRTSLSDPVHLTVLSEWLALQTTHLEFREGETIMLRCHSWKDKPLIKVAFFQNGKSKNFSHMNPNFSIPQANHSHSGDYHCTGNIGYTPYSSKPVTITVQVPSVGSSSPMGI
The protocol: as §1, §2

Experiment [8] addresses T8, human FcγRIIaR extracellular domain, C-terminal His-tag (human, UniProt P12318 34-217).
T8 construct: also called human FcγRIIa (type R); FcgRIIaR; not shown: His-tag added to C-terminus
T8 chain: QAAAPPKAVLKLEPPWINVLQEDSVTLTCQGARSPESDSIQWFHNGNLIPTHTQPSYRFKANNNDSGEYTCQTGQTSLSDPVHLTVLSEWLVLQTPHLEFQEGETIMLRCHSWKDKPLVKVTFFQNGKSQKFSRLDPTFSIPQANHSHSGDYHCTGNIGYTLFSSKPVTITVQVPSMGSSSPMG
On the procedure: as §1, §2

T6 sequence (P08637 17-208 F176V): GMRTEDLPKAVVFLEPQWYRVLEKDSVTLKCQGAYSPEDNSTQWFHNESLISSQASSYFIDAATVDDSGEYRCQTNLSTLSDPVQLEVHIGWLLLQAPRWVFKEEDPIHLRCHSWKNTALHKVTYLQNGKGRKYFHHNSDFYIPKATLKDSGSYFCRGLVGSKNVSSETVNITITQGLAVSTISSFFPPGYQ

B1: MS_M103205H795-SG1/M103202L889-SK1 (antibody, human IgG1, kappa)
heavy: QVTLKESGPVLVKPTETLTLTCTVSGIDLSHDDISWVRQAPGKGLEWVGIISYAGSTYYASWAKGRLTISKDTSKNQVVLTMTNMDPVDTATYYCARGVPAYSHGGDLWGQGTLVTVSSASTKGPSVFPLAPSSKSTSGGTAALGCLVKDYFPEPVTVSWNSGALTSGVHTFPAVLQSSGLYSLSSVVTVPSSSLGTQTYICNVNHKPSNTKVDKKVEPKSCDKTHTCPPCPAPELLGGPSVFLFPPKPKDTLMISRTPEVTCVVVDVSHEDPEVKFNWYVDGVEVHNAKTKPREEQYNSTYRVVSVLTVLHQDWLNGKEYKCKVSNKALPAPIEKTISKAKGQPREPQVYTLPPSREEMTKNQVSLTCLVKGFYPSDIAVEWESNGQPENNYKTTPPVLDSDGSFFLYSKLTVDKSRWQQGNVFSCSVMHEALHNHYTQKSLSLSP
light: DIVMTQSPATLSLSPGERATLSCTSSQSVYHANWLSWFQQKPGQPPKLLIYWASTLAYGVPSRFSGSGSGTDFTLTISSLQPEDAATYYCAGGYGGGRYAFGQGTKVEIKRTVAAPSVFIFPPSDEQLKSGTASVVCLLNNFYPREAKVQWKVDNALQSGNSQESVTEQDSKDSTYSLSSTLTLSKADYEKHKVYACEVTHQGLSSPVTKSFNRGEC
notes: Parent antibody; also called MS1032LO06-SG1
As to B1, the “KD fold (SG1 = 1)” value in experiment [1], in experiment [2], in experiment [3], in experiment [4], in experiment [5] and in experiment [6] was 1 fold throughout. Besides, the “KD fold (SG1 = 1)” value in experiment [7] and in experiment [8] was 1 fold each time.

B2: M103205H795-MY143/M103202L889-SK1 (antibody, human IgG1, kappa)
heavy: QVTLKESGPVLVKPTETLTLTCTVSGIDLSHDDISWVRQAPGKGLEWVGIISYAGSTYYASWAKGRLTISKDTSKNQVVLTMTNMDPVDTATYYCARGVPAYSHGGDLWGQGTLVTVSSASTKGPSVFPLAPSSKSTSGGTAALGCLVKDYFPEPVTVSWNSGALTSGVHTFPAVLQSSGLYSLSSVVTVPSSSLGTQTYICNVNHKPSNTKVDKKVEPKSCDKTHTCPPCPAPELLSGPSVFLFPPKPKDTLMISRTPEVTCVVVDVSEEDPEVKFNWYVDGVEVHNAKTKPREEQYNSTYRVVSVLTVLHQDWLNGKEYKCKVSNKALPAPIEKTISKAKGQPREPQVYTLPPSREEMTKNQVSLTCLVKGFYPSDIAVEWESNGQPENNYKTTPMVLDSDGSFFLYSKLTVDKSRWQQGNVFSCSVMHEALHNHYTQKSLSLSP
light: DIVMTQSPATLSLSPGERATLSCTSSQSVYHANWLSWFQQKPGQPPKLLIYWASTLAYGVPSRFSGSGSGTDFTLTISSLQPEDAATYYCAGGYGGGRYAFGQGTKVEIKRTVAAPSVFIFPPSDEQLKSGTASVVCLLNNFYPREAKVQWKVDNALQSGNSQESVTEQDSKDSTYSLSSTLTLSKADYEKHKVYACEVTHQGLSSPVTKSFNRGEC
Consider B2, for which the “KD fold (SG1 = 1)” value in experiment [1] amounted to 18.6 fold; in experiment [2], 6.3 fold; in experiment [3], 5.9 fold; in experiment [4], 8.9 fold; in experiment [5] it was 2.9 fold; in experiment [6], 0.52 fold. The figures for the “KD fold (SG1 = 1)” value in experiment [7] and in experiment [8] were 3.9 fold and 13.3 fold, respectively.

B3: M103205H795-MY142/M103202L889-SK1 (antibody, human IgG1, kappa)
heavy: QVTLKESGPVLVKPTETLTLTCTVSGIDLSHDDISWVRQAPGKGLEWVGIISYAGSTYYASWAKGRLTISKDTSKNQVVLTMTNMDPVDTATYYCARGVPAYSHGGDLWGQGTLVTVSSASTKGPSVFPLAPSSKSTSGGTAALGCLVKDYFPEPVTVSWNSGALTSGVHTFPAVLQSSGLYSLSSVVTVPSSSLGTQTYICNVNHKPSNTKVDKKVEPKSCDKTHTCPPCPAPELLEGPSVFLFPPKPKDTLMISRTPEVTCVVVDVSEEDPEVKFNWYVDGVEVHNAKTKPREEQYNSTYRVVSVLTVLHQDWLNGKEYKCKVSNKALPAPIEKTISKAKGQPREPQVYTLPPSREEMTKNQVSLTCLVKGFYPSDIAVEWESNGQPENNYKTTPMVLDSDGSFFLYSKLTVDKSRWQQGNVFSCSVMHEALHNHYTQKSLSLSP
light: DIVMTQSPATLSLSPGERATLSCTSSQSVYHANWLSWFQQKPGQPPKLLIYWASTLAYGVPSRFSGSGSGTDFTLTISSLQPEDAATYYCAGGYGGGRYAFGQGTKVEIKRTVAAPSVFIFPPSDEQLKSGTASVVCLLNNFYPREAKVQWKVDNALQSGNSQESVTEQDSKDSTYSLSSTLTLSKADYEKHKVYACEVTHQGLSSPVTKSFNRGEC
Turning to B3, the “KD fold (SG1 = 1)” value in experiment [1] came out at 3.6 fold; in experiment [2], 4.8 fold; in experiment [3] it was 0.7 fold; in experiment [4] it was 1 fold; in experiment [5], 0.8 fold; in experiment [6], 1.4 fold. Moreover, the figures for the “KD fold (SG1 = 1)” value in experiment [7] and in experiment [8] were 1 fold and 6.5 fold, respectively.

B4: M103205H795-MY280/M103202L889-SK1 (antibody, human IgG1, kappa)
heavy: QVTLKESGPVLVKPTETLTLTCTVSGIDLSHDDISWVRQAPGKGLEWVGIISYAGSTYYASWAKGRLTISKDTSKNQVVLTMTNMDPVDTATYYCARGVPAYSHGGDLWGQGTLVTVSSASTKGPSVFPLAPSSKSTSGGTAALGCLVKDYFPEPVTVSWNSGALTSGVHTFPAVLQSSGLYSLSSVVTVPSSSLGTQTYICNVNHKPSNTKVDKKVEPKSCDKTHTCPPCPAPELLVGPSVFLFPPKPKDTLMISRTPEVTCVVVDVSDEDPEVKFNWYVDGVEVHNAKTKPREELYNSTYRVVSVLTVLHQDWLNGKEYKCKVSNKALPKPIEKTISKAKGQPREPQVYTLPPSREEMTKNQVSLTCLVKGFYPSDIAVEWESNGQPENNYKTTPPVLDSDGSFFLYSKLTVDKSRWQQGNVFSCSVMHEALHNHYTQKSLSLSP
light: DIVMTQSPATLSLSPGERATLSCTSSQSVYHANWLSWFQQKPGQPPKLLIYWASTLAYGVPSRFSGSGSGTDFTLTISSLQPEDAATYYCAGGYGGGRYAFGQGTKVEIKRTVAAPSVFIFPPSDEQLKSGTASVVCLLNNFYPREAKVQWKVDNALQSGNSQESVTEQDSKDSTYSLSSTLTLSKADYEKHKVYACEVTHQGLSSPVTKSFNRGEC
With B4, the “KD fold (SG1 = 1)” value stood at 8.5 fold in experiment [1]; 1.6 fold in experiment [2]; 5.5 fold in experiment [4]; 3.2 fold in experiment [5]; 0.18 fold in experiment [6]; 4.3 fold in experiment [7]. Also, in experiment [8], the “KD fold (SG1 = 1)” value came out at 2.4 fold.
